Where a chain is given by its changes, count along the chain named.
B1: CP870893-IgG2 (antibody, V domains shown)
VH: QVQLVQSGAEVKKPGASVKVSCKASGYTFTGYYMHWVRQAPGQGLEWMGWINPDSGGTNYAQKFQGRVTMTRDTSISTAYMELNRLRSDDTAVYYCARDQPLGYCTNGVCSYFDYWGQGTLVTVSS
VL: DIQMTQSPSSVSASVGDRVTITCRASQGIYSWLAWYQQKPGKAPNLLIYTASTLQSGVPSRFSGSGSGTDFTLTISSLQPEDFATYYCQQANIFPLTFGGGTKVEIKR
notes: Control antibody; also called CP870893-IgG2-wt; CP-870893-G2-WT
B2: ADI-47720 (antibody, human IgG1, kappa, V domains shown)
VH: EVQLVESGGGLVQPGRSLRLSCAASGFTFDDYAMHWVRQAPGKGLEWVSGISWSSGSIGYADSVKGRFTISRDNAKNSLYLQMNSLRAEDTAVYYCAKDPTATTGARGYFDLWGRGTLVTVSS
VL: B1 VL with Y30S, N45K, T50A, T53S, A91R, N92A, I93S, L96P
B3: ADI-55142 (antibody, human IgG1, kappa, V domains shown)
VH: QVQLVESGGGVVQPGRSLRLSCAASGFTFEKYGMHWVRQAPGKGLEWVAVISYEGEKKYYADSVKGRFTISRDNSKNTLYLQMNSLRAEDTAVYYCARDTSRGHDIWGQGTMVTVSS
VL: EIVLTQSPGTLSLSPGERATLSCRASQSVSYSYLAWYQQKPGQAPRLLIYGASSRANGIPDRFSGSGSGTDFTLTISRLEPEDFAVYYCSDYADYPPFTFGGGTKVEIKR
B4: ADI-55145 (antibody, human IgG1, kappa, V domains shown)
VH: B3 VH with E56T, K57S
VL: B3 VL with R24Q, S32N, A56N, S90Q, D91Q, A93S
B5: ADI-55147 (antibody, human IgG1, kappa, V domains shown)
VH: B3 VH with E30G, K31S, E56V
VL: B3 VL with S32D, S54A, S90Q, D91Q

molecular target: T1, human CD40 overexpressed on cells (human, UniProt P25942 21-277); assay: cell-based or functional assay
T1 sequence (P25942 21-277 limits assumed): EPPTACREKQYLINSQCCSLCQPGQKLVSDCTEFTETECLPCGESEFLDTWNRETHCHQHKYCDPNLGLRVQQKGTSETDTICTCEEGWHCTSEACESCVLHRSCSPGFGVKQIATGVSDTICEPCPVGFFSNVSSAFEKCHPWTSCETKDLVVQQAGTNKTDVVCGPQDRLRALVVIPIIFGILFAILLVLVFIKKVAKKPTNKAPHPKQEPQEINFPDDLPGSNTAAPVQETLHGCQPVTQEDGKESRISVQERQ

Row | Binder | Signal amplification with bead crosslinking (NFkB-Luc2P reporter, U2OS cells overexpressing human CD40) | Signal amplification without bead crosslinking (NFkB-Luc2P reporter, U2OS cells overexpressing human CD40)
1 | B1 | 14.8 | 4.7
2 | B2 | 11.5 | 1.3

molecular target: T2, cynomolgus CD40 overexpressed on CHO-S cells (cynomolgus, UniProt G7PG38 21-278); assay: flow cytometry on CHO-S cells overexpressing cynomolgus CD40
T2 construct: whole, on cells; also called cynomolgus CD40 expressing CHO cells
Experimental: (§1) Specifically, by transfecting the pCHO1.0 vector (Invitrogen) with the human/cynomolgus CD40 cDNA cloned into the MCS and followed by applying pressure selection, CHO-S cells overexpressing human/cynomolgus CD40 were generated. The expanded CD40 overexpressing cells were adjusted to the appropriate cell density and plated on 96-well flow plate. After centrifugation, the cells were incubated with a gradient-diluted sample at 4° C. for 30 minutes. and the cells were then washed twice with PBS, and followed by incubation with a fluorescent secondary antibody diluted to the appropriate concentration, at 4° C. for 30 min. Following two washes with PBS, cells were resuspended in PBS and fluorescent signals were detection on the CytoFlex flow cytometer to calculate the corresponding MFI.

Row | Binder | EC50 [nM]
3 | B3 | 6.32
4 | B4 | 6.66
5 | B5 | 4.49
6 | B1 | 7.28
7 | B2 | 5.54

molecular target: T1, human CD40 overexpressed on cells; assay: cell-based or functional assay; remark: another data set of the same source

Row | Binder | EC50 of the CD40-NFkB reporter gene assay (without beads cross-linking) [nM]
8 | B1 | 131
9 | B2 | ~1070

molecular target: T3, human CD40-Fc protein (human, UniProt P25942 21-193); assay: BLI (ForteBio), IgG on AHQ sensor, 100 nM CD40-Fc in solution, bivalent, 1:1 model
T3 construct: also called human CD40-Fc fusion protein; CD40-Fc antigen; not shown: Fc part
T3 sequence (P25942 21-193 limits assumed): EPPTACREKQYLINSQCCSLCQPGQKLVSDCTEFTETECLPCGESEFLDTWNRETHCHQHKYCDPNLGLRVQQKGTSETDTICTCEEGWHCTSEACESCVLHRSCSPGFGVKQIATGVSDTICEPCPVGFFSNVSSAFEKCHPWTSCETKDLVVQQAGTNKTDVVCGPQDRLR
Experimental: (§2) The antibody-loaded sensor was further incubated in a high concentration of irrelevant intact antibody solution for 10 minutes to saturate and block the Fc binding sites on the AHQ sensor. The blocked sensor was then incubated with 100 nM CD40-Fc antigen until a plateau was reached, and then the sensor was transferred to the analysis buffer for at least 2 minutes for dissociation rate measurement. Kinetic analysis was performed using a 1:1 binding model.

Row | Binder | Kd [nM]
10 | B3 | 0.146
11 | B4 | 0.169
12 | B5 | 0.139
13 | B2 | 9.32

molecular target: T4, cynomolgus CD40-Fc protein (cynomolgus, UniProt G7PG38 21-193); assay: as above
T4 construct: not shown: Fc part
Experimental: as §2

Row | Binder | Kd [nM]
14 | B3 | 0.193
15 | B4 | 0.226
16 | B5 | 0.208
17 | B2 | 6.07

molecular target: T1, human CD40 overexpressed on cells; assay: flow cytometry on CHO-S cells overexpressing human CD40
Experimental: as §1

Row | Binder | EC50 [nM]
18 | B3 | 7.69
19 | B4 | 5.26
20 | B5 | 7.49
21 | B1 | 8
22 | B2 | 4.82

molecular target: T1, human CD40 overexpressed on cells; assay: cell-based or functional assay; remark: another data set of the same source

Row | Binder | EC50 of the CD40-NFkB reporter gene assay (with beads cross-linking) [nM]
23 | B1 | 181
24 | B2 | 304
